Molecular target: His-tagged human CRMP-2 (residues 1-490) (human) (UniProt Q16555)
Assay: SPR

Kd: 75 µM
Substance: Recombinant human calmodulin (from UniProt P0DP23 1-149) (natural protein)

Reference: article PMC4428678
